According to paper PMC6689063:

Biological target: T1, AztC from Paracoccus denitrificans (WT PdAztC), solute binding protein of the AztABC zinc transporter (Paracoccus denitrificans PD1222) (UniProt A1B2F3)
T1 sequence: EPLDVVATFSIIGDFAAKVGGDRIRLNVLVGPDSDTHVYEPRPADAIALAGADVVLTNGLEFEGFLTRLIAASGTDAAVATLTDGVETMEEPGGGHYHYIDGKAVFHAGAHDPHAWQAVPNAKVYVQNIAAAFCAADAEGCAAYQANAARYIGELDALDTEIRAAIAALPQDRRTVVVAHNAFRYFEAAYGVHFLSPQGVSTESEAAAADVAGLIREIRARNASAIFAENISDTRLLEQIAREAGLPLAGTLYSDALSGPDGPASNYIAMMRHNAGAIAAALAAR

zinc transferred to AztC after incubation of 100 μM each protein with 1 mM EDTA, anion exchange chromatography and zinc quantitation by ICP-OES (equivalent of zinc): 1
B1: ΔS1 PdAztD (H124A/H167A/H218A) (natural protein)
chain: QDHDHDHEDVTLYRVFVGDHEKGQVTAFDLAEPDHRWTFPTTGQVKLYSVAGGAVVAAVQSDADTVQFIRSGISFHDHGDHRDIEVGDPAAIDASLTGPRPFALVEHDGKVVLNYDQGGYAEILDGHALAEGKAEPGRFPQARAHAGFVAPLGGNWLSTVASDEKVEGDASVPRLGLQAFDAEGNPAGNLATCTGIAGEAFSGAYLAAGCKEGVLTVKAGANGSEYKLLPYPADLPQGVTTGTLLGSTGIQVFLGNYGPDGLVVIDPVDEPHYRYIKLPFRRVDFALDPAKPSTGYVLTEDGSLHRIDLLKAEIVASAKVTEPYSMDGHWNDPRPRIAMAGDEIVVTDPNAGLVRRIATEDLSERGTVPVEGKPYNIAVTGGSGVTH
